Read-outs that look alike come from different tables or passages of the source.
What was measured:
[1] = target: T1, human MerTK-his protein (human, UniProt Q12866 21-505); assay: ELISA, plate coated with human MerTK-his, OD 450nm
T1 construct: extracellular domain; also called hMerTK-His; human MerTK protein
T1 sequence (looked up): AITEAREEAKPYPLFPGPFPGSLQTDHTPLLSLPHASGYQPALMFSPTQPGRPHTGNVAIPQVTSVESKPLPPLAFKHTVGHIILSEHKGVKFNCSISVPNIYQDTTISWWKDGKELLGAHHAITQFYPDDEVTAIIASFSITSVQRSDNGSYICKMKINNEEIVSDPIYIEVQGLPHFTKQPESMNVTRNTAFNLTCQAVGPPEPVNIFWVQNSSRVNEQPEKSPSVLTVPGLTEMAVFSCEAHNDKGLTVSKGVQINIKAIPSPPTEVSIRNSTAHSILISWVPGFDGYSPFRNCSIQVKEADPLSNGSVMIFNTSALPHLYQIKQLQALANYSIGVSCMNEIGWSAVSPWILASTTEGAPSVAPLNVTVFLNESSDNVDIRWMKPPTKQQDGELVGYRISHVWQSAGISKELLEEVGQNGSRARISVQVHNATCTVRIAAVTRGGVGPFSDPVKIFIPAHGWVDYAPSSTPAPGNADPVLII
Experimental: (§1) To evaluate the binding activity, the chimeric mAbs were subjected to ELISA test. Briefly, 96-well plates were coated with human or cyno MerTK-his protein at 2 μg/mL in PBS, 100 μL/well at 4° C. overnight, then blocked with 150 μL/well of 1% BSA. Five-fold dilutions of MerTK antibodies starting from 20 nM were added to each well and incubated for 1 hour at room temperature. The plates were washed with PBS/Tween-20 and then incubated with goat anti-human IgG Fe antibody conjugated with Horse Radish Peroxidase (HRP) for 30 minutes (mins) at room temperature. After washing, the plates were developed with TMB substrate and subsequent stop solution was added to complete the reaction. The signal from each well was read by spectrophotometer at OD 450 nm.
(§2) To evaluate the antigen binding activity, the humanized antibodies were subjected to ELISA test as described before.

[2] = target: T2, human MerTK expressed on cells (human, UniProt Q12866 21-999); assay: FACS on CHO-K1 cells overexpressing human MerTK, MFI (AF488)
T2 construct: whole, on cells; also called CHO-K1-hMerTK; CHO-K1-MerTK
T2 sequence (looked up): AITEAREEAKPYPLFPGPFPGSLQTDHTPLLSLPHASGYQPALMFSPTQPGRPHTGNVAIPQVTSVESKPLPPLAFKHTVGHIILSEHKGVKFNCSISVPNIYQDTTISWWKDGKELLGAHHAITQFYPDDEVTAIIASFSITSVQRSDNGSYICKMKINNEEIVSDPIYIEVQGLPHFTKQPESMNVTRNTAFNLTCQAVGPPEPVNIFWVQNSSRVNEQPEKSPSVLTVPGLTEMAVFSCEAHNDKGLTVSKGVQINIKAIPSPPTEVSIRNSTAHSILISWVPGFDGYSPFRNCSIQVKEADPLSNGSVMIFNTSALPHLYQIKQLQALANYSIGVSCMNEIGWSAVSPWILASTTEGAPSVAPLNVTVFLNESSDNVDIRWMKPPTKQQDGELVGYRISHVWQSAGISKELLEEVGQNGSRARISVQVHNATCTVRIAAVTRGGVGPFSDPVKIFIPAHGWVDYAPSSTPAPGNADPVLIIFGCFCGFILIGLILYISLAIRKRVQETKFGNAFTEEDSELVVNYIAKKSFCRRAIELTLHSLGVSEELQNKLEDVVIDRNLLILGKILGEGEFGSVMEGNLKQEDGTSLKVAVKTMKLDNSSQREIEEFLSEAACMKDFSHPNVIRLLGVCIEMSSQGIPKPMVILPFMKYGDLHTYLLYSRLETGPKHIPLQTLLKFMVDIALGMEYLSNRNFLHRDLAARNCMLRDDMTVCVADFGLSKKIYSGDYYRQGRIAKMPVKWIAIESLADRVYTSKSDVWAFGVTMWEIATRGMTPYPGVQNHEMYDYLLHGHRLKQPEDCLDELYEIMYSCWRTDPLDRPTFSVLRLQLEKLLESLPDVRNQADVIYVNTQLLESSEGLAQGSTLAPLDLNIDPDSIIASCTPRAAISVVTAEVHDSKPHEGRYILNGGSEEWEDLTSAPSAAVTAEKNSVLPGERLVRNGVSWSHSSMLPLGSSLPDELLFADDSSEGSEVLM

[3] = target: T1, human MerTK-his protein; assay: SPR Biacore 8K, antibody captured on Protein A chip, 50 nM antigen
Experimental: To explore whether the humanized antibodies could maintain their binding kinetics, affinity ranking were performed with Biacore™. The antibodies were captured with a Protein A chips. Human MerTK-his protein at 50 nM was injected over captured antibodies for 180 s at a flow rate of 30 μL/min. The antigen was allowed to dissociate for 600 s. The experiment was carried out on a Biacore™ 8K. Data analysis was carried out using Biacore™ 8K evaluation software.

[4] = target: T1, human MerTK-his protein; assay: ELISA, plate coated with human MerTK-his, OD 450nm; remark: listed apart in the source
Experimental: as §1, §2

[5] = target: T2, human MerTK expressed on cells; assay: FACS on CHO-K1 cells overexpressing human MerTK, MFI (AF488); remark: listed apart in the source

Binder	EC50 [1]	EC50 [2]	Kd [3]	koff [3]	kon [3]	EC50 [4]	EC50 [5]
265F11B5Hu-12 (antibody, V domains shown) VH: QVQLVQSGAEVKKPGASVKVSCKASGYTFTTYDINWVRQAPGQGLEWIGWIYPRDGYTKYNEKFKGRATLAVDTSTSTAYMELRSLRSDDTAVYFCTRGYYDNLYYFDYWGQGTTVTVSS VL: EIVLTQSPDFQSVTPKEKVTITCSASSIISSNYFHWYQQKPDQSPKLLIYRTSNLASGVPSRFSGSGSGTDYTLTINSLEAEDAATYYCQQGRSVPLTFGQGTKLEIK	0.052 nM	0.19 nM	1.64 nM	0.00031 s⁻¹	189000 M⁻¹ s⁻¹		
254B4D9Hu-1 (antibody, V domains shown) VH: QVQLVQSGSELKKPGASVKVSCKASGYTFTAYGMSWVKQAPGQGLQWMGWINTYSGVPTYTDDFKGRFVFSLDTSVSTAFLQISSLKAEDTAVYFCARRAAVVAKYWYFDVWGQGTTVTVSS VL: DIQMTQSPSSLSASVGDRVTITCKSSQDINKRISWYQQKPGKAPKLLIHSTSSLQPGVPSRFSGSGSGRDFTFTISSLQPEDIATYFCLQYDNLLTFGQGTKLEIK			2.19 nM	0.000475 s⁻¹	217000 M⁻¹ s⁻¹	0.094 nM	0.85 nM
254B4D9Hu-2 (antibody, V domains shown) VH: QVQLVQSGHEVKQPGASVKVSCKASGYSFTAYGMSWVKQAPGQGLQWMGWINTYSGVPTYTDDFKGRFVFSLDTSASTAFLQISSLKAEDMAMYFCARRAAVVAKYWYFDVWGQGTTVTVSS VL: DIQMTQSPSSLSASVGDRVTITCKSSQDINKRISWYQQKPGKAPKLLIHSTSSLQPGVPSRFSGSGSGRDFTFTISSLQPEDIATYFCLQYDNLLTFGQGTKLEIK			10.9 nM	0.000592 s⁻¹	54100 M⁻¹ s⁻¹	0.064 nM	1.1 nM
